Earlier results in publication PMC12564133.

Biological target: BKCa channel (UniProt Q12791)
Sequence of UniProt Q12791 (Q12791 whole entry): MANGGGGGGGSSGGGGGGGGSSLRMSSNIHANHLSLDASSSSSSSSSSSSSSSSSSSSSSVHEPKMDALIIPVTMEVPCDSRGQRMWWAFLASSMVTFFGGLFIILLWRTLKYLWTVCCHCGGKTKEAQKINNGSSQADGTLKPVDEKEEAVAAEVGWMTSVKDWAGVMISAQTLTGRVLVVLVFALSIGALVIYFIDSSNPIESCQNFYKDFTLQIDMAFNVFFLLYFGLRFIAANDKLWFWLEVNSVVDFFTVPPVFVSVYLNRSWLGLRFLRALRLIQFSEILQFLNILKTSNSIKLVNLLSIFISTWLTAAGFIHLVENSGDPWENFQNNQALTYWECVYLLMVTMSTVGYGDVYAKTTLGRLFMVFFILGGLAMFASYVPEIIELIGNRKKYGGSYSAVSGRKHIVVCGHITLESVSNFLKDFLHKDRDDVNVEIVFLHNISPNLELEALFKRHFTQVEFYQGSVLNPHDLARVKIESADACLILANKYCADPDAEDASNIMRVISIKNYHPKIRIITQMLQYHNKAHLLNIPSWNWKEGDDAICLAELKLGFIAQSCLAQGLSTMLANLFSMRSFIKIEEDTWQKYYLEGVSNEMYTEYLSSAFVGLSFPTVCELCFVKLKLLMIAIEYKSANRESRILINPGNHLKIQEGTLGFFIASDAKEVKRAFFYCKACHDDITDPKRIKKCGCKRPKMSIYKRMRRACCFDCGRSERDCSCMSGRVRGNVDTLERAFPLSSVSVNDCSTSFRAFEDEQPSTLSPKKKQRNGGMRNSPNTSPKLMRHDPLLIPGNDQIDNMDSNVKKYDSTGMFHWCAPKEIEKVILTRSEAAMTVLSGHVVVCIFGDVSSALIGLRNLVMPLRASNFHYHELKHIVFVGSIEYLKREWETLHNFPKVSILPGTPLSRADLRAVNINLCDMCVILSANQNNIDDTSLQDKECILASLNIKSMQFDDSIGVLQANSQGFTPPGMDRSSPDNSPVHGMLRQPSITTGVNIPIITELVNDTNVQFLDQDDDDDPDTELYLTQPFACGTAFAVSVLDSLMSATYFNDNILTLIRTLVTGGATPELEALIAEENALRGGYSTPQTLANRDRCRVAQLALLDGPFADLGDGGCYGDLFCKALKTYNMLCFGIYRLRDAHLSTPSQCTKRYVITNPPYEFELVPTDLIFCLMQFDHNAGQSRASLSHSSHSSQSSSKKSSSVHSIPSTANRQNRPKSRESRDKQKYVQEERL

## Iberiotoxin (IbTX) (from UniProt P24663)
  Kd: 1.16 nM
